Assay results: publication PMC11784016

Tests used:
Test in all cases: co-IP; 293T cells co-transfected; 400 ug of cell lysate on anti-HA magnetic beads with RNaseA (50 ug/mL), 2 h at 4 C; co-IP buffer 50 mM Tris-Cl pH 7.4, 1% Nonidet-P40, 10% glycerol, 150 mM NaCl; immunoblot with anti-HA and anti-V5 or anti-Flag; band intensities normalised to the immunoprecipitated protein, full-length protein set to 100%
[1] = biological target: APOBEC3F-HA (pcDNA3.1 A3F-HA) (human) (UniProt Q8IUX4)
[2] = biological target: APOBEC3F N-terminal domain, HA-tagged (pcDNA3.1 A3F NTD-HA) (human)
APOBEC3F N-terminal domain, HA-tagged (pcDNA3.1 A3F NTD-HA) (human), sequence (Q8IUX4 whole entry, the tested form may be a part): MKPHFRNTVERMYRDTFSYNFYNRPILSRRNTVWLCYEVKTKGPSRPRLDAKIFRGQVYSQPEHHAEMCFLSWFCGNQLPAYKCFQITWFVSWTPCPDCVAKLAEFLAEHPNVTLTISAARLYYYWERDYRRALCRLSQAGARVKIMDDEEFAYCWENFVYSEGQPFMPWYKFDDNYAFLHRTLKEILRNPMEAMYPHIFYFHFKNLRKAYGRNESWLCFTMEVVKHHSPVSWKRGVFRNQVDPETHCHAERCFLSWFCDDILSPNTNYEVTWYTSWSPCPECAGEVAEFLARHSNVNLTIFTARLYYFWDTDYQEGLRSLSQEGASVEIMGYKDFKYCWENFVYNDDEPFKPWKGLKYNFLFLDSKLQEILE

[3] = biological target: APOBEC3G N-terminal domain, HA-tagged (pcDNA3.1 A3G NTD-HA) (human)
APOBEC3G N-terminal domain, HA-tagged (pcDNA3.1 A3G NTD-HA) (human), sequence (Q9HC16 whole entry, the tested form may be a part): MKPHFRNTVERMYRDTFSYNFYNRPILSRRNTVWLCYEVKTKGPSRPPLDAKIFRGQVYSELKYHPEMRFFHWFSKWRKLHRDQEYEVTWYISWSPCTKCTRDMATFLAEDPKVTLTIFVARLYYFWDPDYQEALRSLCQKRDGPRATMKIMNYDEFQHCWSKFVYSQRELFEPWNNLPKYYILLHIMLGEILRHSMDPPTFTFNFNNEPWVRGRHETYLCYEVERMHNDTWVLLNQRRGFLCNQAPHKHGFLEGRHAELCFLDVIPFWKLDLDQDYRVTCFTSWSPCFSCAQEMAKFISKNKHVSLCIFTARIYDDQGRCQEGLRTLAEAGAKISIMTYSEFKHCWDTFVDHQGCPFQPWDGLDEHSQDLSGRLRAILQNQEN

[4] = biological target: APOBEC3G with C-terminal triple HA tag (pcDNA3.1-APOBEC3G-HA) (human) (UniProt Q9HC16)

Q: How did the fold by which full-length A3G in the co-IP exceeded this construct [1] turn out when “APOBEC3G C-terminal domain, Flag-tagged (A3G CTD-Flag) (domain or fragment)” was run?
A: Its fold by which full-length A3G in the co-IP exceeded this construct is 42 fold.

Q: What does the source list for “APOBEC3G N-terminal domain, Flag-tagged (pcDNA3.1 A3G NTD-Flag) (domain or fragment)”?
A: fold by which full-length A3G in the co-IP exceeded this construct [1]: 6 fold; fold less in the co-IP than the full-length protein [2]: 1000 fold

Q: With “APOBEC3F N-terminal domain, Flag-tagged (pcDNA3.1 A3F NTD-Flag) (domain or fragment)” as the substance, how does the fold more immunoprecipitated than full-length A3F [3] read?
A: The fold more immunoprecipitated than full-length A3F was 7 fold.

Q: For “APOBEC3F C-terminal domain, Flag-tagged (pcDNA3.1 A3F CTD-Flag) (domain or fragment)”, which fold less immunoprecipitated than full-length A3F and A3F NTD [4] is on record?
A: The fold less immunoprecipitated than full-length A3F and A3F NTD was 17 fold.
